Earlier results in US20200276303A1, “Combination Therapies and Uses for Treatment of Demyelinating Disorders” (Biogen MA Inc., priority 2012, published 2020).

Settings: for Disease activity measured by brain lesions (MRI scans) and relapse rate compared to placebo: Phase 2 clinical studies in relapse remitting MS

Row | Molecule | Disease activity measured by brain lesions (MRI scans) and relapse rate compared to placebo | also measured
1 | alemtuzumab: antibody against CD52 |  | Phase III studies comparing with Rebif (high-dose subcutaneous interferon beta-1a) (patients with relapsing-remitting MS (RRMS)): positive results
2 | rituximab: antibody against CD20 | statistically significant reduction | 
3 | ocrelizumab: antibody against CD20 | statistically significant reduction | 
4 | Daclizumab: therapeutic humanized monoclonal antibody to the alpha subunit of the IL-2 receptor of T cells (antibody, chains of the INN, looked up, V domains shown) VH: QVQLVQSGAEVKKPGSSVKVSCKASGYTFTSYRMHWVRQAPGQGLEWIGYINPSTGYTEYNQKFKDKATITADESTNTAYMELSSLRSEDTAVYYCARGGGVFDYWGQGTLVTVSS VL: DIQMTQSPSTLSASVGDRVTITCSASSSISYMHWYQQKPGKAPKLLIYTTSNLASGVPARFSGSGSGTEFTLTISSLQPDDFATYYCHQRSTYPLTFGQGTKVEVK |  | Reducing lesions and improving clinical scores (patients with multiple sclerosis not controlled with interferon): effective
